Source: patent US20220056119A1 (Regeneron, published 2022)
One block for each binder: values may come before it.

Experiments:
[1] = biological target: T1, Activin A (R&D Systems, #338-AC) (human, UniProt P08476 311-426); test: SPR blocking: 5 nM Activin A + 0.94 nM binder over hActRIIB-hFc (Control 4) surface
T1 construct: Bought protein; also called inhibin-βA dimer; homodimer of two βA subunits
T1 sequence: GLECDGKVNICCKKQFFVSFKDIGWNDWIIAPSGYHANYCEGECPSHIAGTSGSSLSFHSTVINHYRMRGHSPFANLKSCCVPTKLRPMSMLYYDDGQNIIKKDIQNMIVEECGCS
Protocol: (§1) The binding signal (RU) was measured at 150 seconds after the start of the injection, and this signal was subtracted by the measured RU value for a negative control reference surface to determine the specific binding signal.

[2] = biological target: T1, Activin A (R&D Systems, #338-AC); test: SPR blocking: 5 nM Activin A + 30 nM binder over hActRIIB-hFc (Control 4) surface
Protocol: as §1

[3] = biological target: T1, Activin A (R&D Systems, #338-AC); test: SPR blocking: 5 nM Activin A + 15 nM binder over hActRIIB-hFc (Control 4) surface
Protocol: as §1

[4] = biological target: T1, Activin A (R&D Systems, #338-AC); test: SPR blocking: 5 nM Activin A + 3.75 nM binder over hActRIIB-hFc (Control 4) surface
[5] = biological target: T1, Activin A (R&D Systems, #338-AC); test: SPR blocking: 5 nM Activin A + 60 nM binder over hActRIIB-hFc (Control 4) surface
Protocol: as §1

[6] = biological target: T1, Activin A (R&D Systems, #338-AC); test: SPR blocking: 5 nM Activin A + 1.88 nM binder over hActRIIB-hFc (Control 4) surface
Protocol: as §1

[7] = biological target: T1, Activin A (R&D Systems, #338-AC); test: SPR blocking: 5 nM Activin A + 0.00 nM binder over hActRIIB-hFc (Control 4) surface
Protocol: as §1

[8] = biological target: T1, Activin A (R&D Systems, #338-AC); test: SPR blocking: 5 nM Activin A + 7.50 nM binder over hActRIIB-hFc (Control 4) surface
Protocol: as §1

Activin B = biological target: T2, Activin B (human, UniProt P09529 293-407); test: cell-based or functional assay
T2 chain: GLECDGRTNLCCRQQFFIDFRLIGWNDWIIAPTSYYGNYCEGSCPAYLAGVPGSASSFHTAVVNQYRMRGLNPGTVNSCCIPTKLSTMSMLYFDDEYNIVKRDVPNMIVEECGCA

Activin A [9] = biological target: T3, Activin A (human, UniProt P08476 311-426); test: cell-based or functional assay
T3 sequence: T1 sequence

Activin A [10] = biological target: T3, Activin A; test: SPR, 5 nM Activin A + 0.94 nM binder over Follistatin-288 surface
Protocol: as §1

Activin A [11] = biological target: T3, Activin A; test: SPR, 5 nM Activin A + 1.88 nM binder over Follistatin-288 surface
Protocol: as §1

Activin A [12] = biological target: T3, Activin A; test: SPR, 5 nM Activin A + 15 nM binder over Follistatin-288 surface
Protocol: as §1

Activin A [13] = biological target: T3, Activin A; test: SPR, 5 nM Activin A + 3.75 nM binder over Follistatin-288 surface
Protocol: as §1

Activin A [14] = biological target: T3, Activin A; test: SPR, 5 nM Activin A + 7.5 nM binder over Follistatin-288 surface
Protocol: as §1

Activin A [15] = biological target: T3, Activin A; test: SPR, 5 nM Activin A + 15 nM binder over hActRIIA-hFc surface
Protocol: as §1

Activin A [16] = biological target: T3, Activin A; test: SPR, 5 nM Activin A + 3.75 nM binder over hActRIIA-hFc surface
Protocol: as §1

Activin AC = biological target: T4, Activin AC (human, UniProt P55103 237-352); test: cell-based or functional assay
T4 sequence 1: T1 sequence
T4 sequence 2: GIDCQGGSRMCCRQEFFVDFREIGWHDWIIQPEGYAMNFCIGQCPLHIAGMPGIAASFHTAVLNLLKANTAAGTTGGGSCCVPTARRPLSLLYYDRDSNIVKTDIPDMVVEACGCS

Activin AB = biological target: T5, Activin AB (human, UniProt P08476 311-426; P09529 293-407); test: cell-based or functional assay
T5 chain 1: T1 sequence
T5 chain 2: T2 chain

Activin A [17] = biological target: T3, Activin A; test: SPR, 5 nM Activin A + 30 nM binder over hActRIIA-hFc surface
Protocol: as §1

Activin A [18] = biological target: T3, Activin A; test: SPR, 5 nM Activin A + 0.00 nM binder (no inhibitor) over hActRIIA-hFc surface
Protocol: as §1

Activin A [19] = biological target: T3, Activin A; test: SPR, 5 nM Activin A + 60 nM binder over Follistatin-288 surface
Protocol: as §1

Activin A [20] = biological target: T3, Activin A; test: SPR, 5 nM Activin A + 0.94 nM binder over hActRIIA-hFc surface
Protocol: as §1

Activin A [21] = biological target: T3, Activin A; test: SPR, 5 nM Activin A + 0 nM binder (no inhibitor) over Follistatin-288 surface
Protocol: as §1

Activin A [22] = biological target: T3, Activin A; test: SPR, 5 nM Activin A + 7.50 nM binder over hActRIIA-hFc surface
Protocol: as §1

Activin A [23] = biological target: T3, Activin A; test: SPR, 5 nM Activin A + 30 nM binder over Follistatin-288 surface
Protocol: as §1

Activin A [24] = biological target: T3, Activin A; test: SPR, 5 nM Activin A + 60 nM binder over hActRIIA-hFc surface
Protocol: as §1

Activin A [25] = biological target: T3, Activin A; test: SPR, 5 nM Activin A + 1.88 nM binder over hActRIIA-hFc surface
Protocol: as §1

B1: H4H10429P (antibody, human IgG4, V domains shown)
VH: QVQLVESGGGVVQPGRSLRLSCVASGFTVSSYGIHWVRQAPGKGLEWVSVIWYDGRNKDYADSVKGRFTISRDNSKNTVYLEMKGLRAEDTALYYCARDKTGDFDSWGQGTLVTVSS
VL: DIQMTQSPSSLSASVGDRVTITCRASQNINSFLSWYQQKPGKAPKFLIYDASSIQSGAPSRFSGSGSGTDFTLTISSLQPEDFATYYCQQSYSSPFTFGQGTKLEIK
% bound RU w/ no inhibitor [1]: 87%
% bound RU w/ no inhibitor [2]: 2%
% bound RU w/ no inhibitor [3]: 2%
% bound RU w/ no inhibitor [4]: 19%
% bound RU w/ no inhibitor [5]: 3%
% bound RU w/ no inhibitor [6]: 67%
% bound RU w/ no inhibitor [7]: 100%
% bound RU w/ no inhibitor [8]: 2%

B2: H4H10433P2 (antibody, human IgG4, V domains shown)
VH: EVQLVESGGGLVQAGRSLRLSCEASGFTFDDYGMHWVRQGPGKGLEWVSGISWNSGNIDYADSVKGRFTISRDNAKTSLYLQMNSLKTDDTALYFCAKDAVGFNWNYFLFDYWGQGTLVTVSS
VL: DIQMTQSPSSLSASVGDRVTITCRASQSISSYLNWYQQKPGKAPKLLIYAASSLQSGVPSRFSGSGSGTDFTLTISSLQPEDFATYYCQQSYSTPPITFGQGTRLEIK
IC50, inhibition of 50 pM Activin B in A204/CAGAx12-Luc luciferase bioassay (Activin B): 1e-07 M
IC50, inhibition of 100 pM Activin A in A204/CAGAx12-Luc luciferase bioassay (Activin A [9]): 1.5e-10 M

B3: H4H10423P (antibody, human IgG4, V domains shown)
VH: QVQLQQSGPGLLKPSQTLSLTCAISGDSVSSNSAAWSWIRQSPSRGLEWLGRTYYRANWFNDYALSVKSRITINPVTSTNHFSLQLHSVTPEDTAVYYCAREGALGYYFDSWGQGTLVTVSS
VL: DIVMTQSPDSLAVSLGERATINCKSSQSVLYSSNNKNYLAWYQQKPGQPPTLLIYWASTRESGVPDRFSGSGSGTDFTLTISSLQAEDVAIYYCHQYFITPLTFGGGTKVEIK
% bound RU w/ no inhibitor [1]: 93%
% bound RU w/ no inhibitor [2]: 41%
% bound RU w/ no inhibitor [3]: 42%
% bound RU w/ no inhibitor [4]: 47%
% bound RU w/ no inhibitor [5]: 41%
% bound RU w/ no inhibitor [6]: 78%
% bound RU w/ no inhibitor [7]: 100%
% bound RU w/ no inhibitor [8]: 42%

B6: H4H10442P2 (antibody, human IgG4, V domains shown)
VH: QVQLQESGPGLVKPSETLSITCTVSGGSFSSHFWTWIRQPPGKGLEWIGYLHYSGGTSYNPSLKSRVIISVDTSKNQFSLKLNSVTAADTAVYYCARARSGITFGGLIVPGSFDIWGQGTMVTVSS
VL: not shown
% bound RU w/ no inhibitor [1]: 110%
% bound RU w/ no inhibitor [2]: 122%
% bound RU w/ no inhibitor [3]: 115%
% bound RU w/ no inhibitor [4]: 88%
% bound RU w/ no inhibitor [5]: 124%
% bound RU w/ no inhibitor [6]: 106%
% bound RU w/ no inhibitor [7]: 100%
% bound RU w/ no inhibitor [8]: 103%

B8: H4H10430P (antibody, human IgG4, V domains shown)
VH: EVQLVESGGGLVQPGRSLRLSCKASGFAFDDFAMHWVRQAPGKGLEWVSGIVWNSGDIGYADSVKGRFTISRDNAKNSLYLQLNSLRTEDTALYFCVKDMVRGLMGFNYYGMDVWGQGTTVTVSS
VL: EIVLTQSPATLSLSPGERATLSCRASQTISTYLVWYRQRPGQAPSLLIYDASNRATDIPARFSGSGSGTDFTLTISSLEPEDFAVYYCQQRSNWPITFGQGTRLEIK
notes: also called mAb1
% bound RU w/ no inhibitor [1]: 80%
% bound RU w/ no inhibitor [2]: 3%
% bound RU w/ no inhibitor [3]: 3%
% bound RU w/ no inhibitor [4]: 20%
% bound RU w/ no inhibitor [5]: 3%
% bound RU w/ no inhibitor [6]: 62%
% bound RU w/ no inhibitor [7]: 100%
% bound RU w/ no inhibitor [8]: 4%

B9: H4H10436P2 (antibody, human IgG4, V domains shown)
VH: QVQLVESGGGVVQPGRSLRLTCVASGFTVSSYGMHWVRQAPGKGLEWVAVMFYDESKKYYADSVKGRFTISRDNSKNTLYLQMNSLRVEDTAVYYCARDEQLDFEYWGQGTLVTVSS
VL: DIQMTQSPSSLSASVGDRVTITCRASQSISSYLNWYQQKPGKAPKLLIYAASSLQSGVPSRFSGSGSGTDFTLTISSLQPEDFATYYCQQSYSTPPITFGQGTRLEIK
% bound RU w/ no inhibitor [1]: 80%
% bound RU w/ no inhibitor [2]: 3%
% bound RU w/ no inhibitor [3]: 2%
% bound RU w/ no inhibitor [4]: 19%
% bound RU w/ no inhibitor [5]: 4%
% bound RU w/ no inhibitor [6]: 60%
% bound RU w/ no inhibitor [7]: 100%
% bound RU w/ no inhibitor [8]: 3%

Continued, values first:

% bound RU w/ no inhibitor [1]: 79%
% bound RU w/ no inhibitor [2]: 4%
% bound RU w/ no inhibitor [3]: 4%
% bound RU w/ no inhibitor [4]: 19%
% bound RU w/ no inhibitor [5]: 4%
% bound RU w/ no inhibitor [6]: 58%
% bound RU w/ no inhibitor [7]: 100%
% bound RU w/ no inhibitor [8]: 7%
B4: H4H10440P2 (antibody, human IgG4, V domains shown)
VH: EVQLVESGGGVVQPGGSLRLSCAASTFTFDDFAMHWVRQAPGKGLEWVSLITGDGGSTYYADPVKGRFTISRDNSKNSLYLQMNSLRTEDTALYYCVKDWWIAARPDYYYYGMDVWGQGTTVTVSS
VL: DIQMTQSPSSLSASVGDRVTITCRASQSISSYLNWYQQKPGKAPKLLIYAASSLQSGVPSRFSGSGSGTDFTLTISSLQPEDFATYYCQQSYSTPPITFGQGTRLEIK

% bound RU w/ no inhibitor (Activin A [10]): 77%
% bound RU w/ no inhibitor (Activin A [11]): 54%
% bound RU w/ no inhibitor (Activin A [12]): 3%
% bound RU w/ no inhibitor (Activin A [13]): 7%
% bound RU w/ no inhibitor (Activin A [14]): 3%
% bound RU w/ no inhibitor (Activin A [15]): 108%
% bound RU w/ no inhibitor (Activin A [16]): 85%
IC50, inhibition of 4 nM Activin AC in A204/CAGAx12-Luc luciferase bioassay (Activin AC): 5.6 nM
IC50, inhibition of 30 pM Activin AB in A204/CAGAx12-Luc luciferase bioassay (Activin AB): 8.2e-09 M
IC50, inhibition of 100 pM Activin A in A204/CAGAx12-Luc luciferase bioassay (Activin A [9]): 4.7e-11 M
% bound RU w/ no inhibitor (Activin A [17]): 98%
% bound RU w/ no inhibitor (Activin A [18]): 100%
% bound RU w/ no inhibitor (Activin A [19]): 3%
% bound RU w/ no inhibitor (Activin A [20]): 111%
% bound RU w/ no inhibitor (Activin A [21]): 100%
% bound RU w/ no inhibitor (Activin A [22]): 94%
% bound RU w/ no inhibitor (Activin A [23]): 3%
% bound RU w/ no inhibitor (Activin A [24]): 118%
% bound RU w/ no inhibitor (Activin A [25]): 115%
B5: H4H10446P2 (antibody, human IgG4, V domains shown)
VH: QVQLQESGPGLVKPSETLSLTCTVSGGSFSSHFWSWIRQPPGKGLEWIGYILYTGGTSFNPSLKSRVSMSVGTSKNQFSLKLSSVTAADTAVYYCARARSGITFTGIIVPGSFDIWGQGTMVTVSS
VL: not shown
notes: also called mAb2

% bound RU w/ no inhibitor [1]: 107%
% bound RU w/ no inhibitor [2]: 89%
% bound RU w/ no inhibitor [3]: 115%
% bound RU w/ no inhibitor [4]: 76%
% bound RU w/ no inhibitor [5]: 129%
% bound RU w/ no inhibitor [6]: 105%
% bound RU w/ no inhibitor [7]: 100%
% bound RU w/ no inhibitor [8]: 95%
B7: H4H10446P2 (antibody, human IgG4, V domains shown)
VH: B5 VH
VL: not shown
notes: also called mAb2
